Patent US20190015483A1 (CSL BEHRING RECOMBINANT FACILITY, published 2019)
Where a chain is given by its changes, count along the chain named. In names and notes the source's numbering stands. Several values for one entry are separate records, joined by “and”; a condition that tells them apart may be missing. Identical values can stand only once.

T1: recombinant Factor VIII (CSL627, rVIII-SingleChain) (Homo sapiens (Human), UniProt P00451 20-2351)
T1 construct: also called FVIII
T1 sequence: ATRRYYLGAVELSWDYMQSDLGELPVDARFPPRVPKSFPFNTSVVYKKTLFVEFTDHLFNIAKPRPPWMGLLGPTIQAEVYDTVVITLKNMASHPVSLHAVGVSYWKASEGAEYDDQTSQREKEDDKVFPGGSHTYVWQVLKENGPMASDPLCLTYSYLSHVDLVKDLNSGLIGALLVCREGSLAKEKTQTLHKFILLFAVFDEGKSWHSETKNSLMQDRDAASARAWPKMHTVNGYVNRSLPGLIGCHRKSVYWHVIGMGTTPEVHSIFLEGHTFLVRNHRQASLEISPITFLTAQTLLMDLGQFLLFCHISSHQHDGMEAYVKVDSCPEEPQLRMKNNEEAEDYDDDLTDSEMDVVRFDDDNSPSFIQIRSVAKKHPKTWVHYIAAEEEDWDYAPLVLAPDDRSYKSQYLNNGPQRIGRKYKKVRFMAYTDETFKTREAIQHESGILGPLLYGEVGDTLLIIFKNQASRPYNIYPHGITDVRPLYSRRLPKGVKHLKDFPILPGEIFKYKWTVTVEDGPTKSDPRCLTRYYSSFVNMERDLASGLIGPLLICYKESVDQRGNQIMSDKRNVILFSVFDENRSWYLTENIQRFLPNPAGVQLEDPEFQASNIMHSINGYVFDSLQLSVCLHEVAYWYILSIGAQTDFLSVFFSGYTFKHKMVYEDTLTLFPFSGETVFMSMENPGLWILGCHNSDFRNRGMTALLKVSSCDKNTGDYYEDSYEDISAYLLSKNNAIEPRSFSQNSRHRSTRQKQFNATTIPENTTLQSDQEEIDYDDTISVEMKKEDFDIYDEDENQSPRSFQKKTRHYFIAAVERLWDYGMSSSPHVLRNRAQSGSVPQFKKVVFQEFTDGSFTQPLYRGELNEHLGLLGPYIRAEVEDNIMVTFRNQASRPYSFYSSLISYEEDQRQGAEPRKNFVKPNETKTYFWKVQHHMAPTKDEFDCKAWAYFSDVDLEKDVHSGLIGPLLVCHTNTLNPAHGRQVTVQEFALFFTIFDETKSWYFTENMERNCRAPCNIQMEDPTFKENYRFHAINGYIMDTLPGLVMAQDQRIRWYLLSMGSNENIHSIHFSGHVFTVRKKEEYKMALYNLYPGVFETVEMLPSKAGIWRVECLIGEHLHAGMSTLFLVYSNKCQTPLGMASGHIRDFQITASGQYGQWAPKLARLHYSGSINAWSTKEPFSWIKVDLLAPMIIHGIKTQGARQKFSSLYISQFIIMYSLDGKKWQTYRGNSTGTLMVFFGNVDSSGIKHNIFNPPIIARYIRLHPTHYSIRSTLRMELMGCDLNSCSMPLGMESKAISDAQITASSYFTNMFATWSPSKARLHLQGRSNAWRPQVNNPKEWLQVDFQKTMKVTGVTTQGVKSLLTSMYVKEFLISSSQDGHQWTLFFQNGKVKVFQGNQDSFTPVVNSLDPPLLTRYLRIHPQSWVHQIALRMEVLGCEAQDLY

T2: recombinant Factor VIII (CSL627, rVIII-SingleChain) (Homo sapiens (Human), UniProt P00451 20-2351)
T2 construct: also called FVIII
T2 sequence: T1 sequence

B1: Hu-vWF[764-1270]-8His S764P-S766Y (other)
chain: PLYCRPPMVKLVCPADNLRAEGLECTKTCQNYDLECMSMGCVSGCLCPPGMVRHENRCVALERCPCFHQGKEYAPGETVKIGCNTCVCRDRKWNCTDHVCDATCSTIGMAHYLTFDGLKYLFPGECQYVLVQDYCGSNPGTFRILVGNKGCSHPSVKCKKRVTILVEGGEIELFDGEVNVKRPMKDETHFEVVESGRYIILLLGKALSVVWDRHLSISVVLKQTYQEKVCGLCGNFDGIQNNDLTSSNLQVEEDPVDFGNSWKVSSQCADTRKVPLDSSPATCHNNIMKQTMVDSSCRILTSDVFQDCNKLVDPEPYLDVCIYDTCSCESIGDCACFCDTIAAYAHVCAQHGKVVTWRTATLCPQSCEERNLRENGYECEWRYNSCAPACQVTCQHPEPLACPVQCVEGCHAHCPPGKILDELLQTCVDPEDCPVCEVAGRRFASGKKVTLNPSDPEHCQICHCDVVNLTCEACQEPGGLVVPPTDAPVSPTTLYVEDISEPPLHDFHHHHHHHH
B2: Hu-vWF[764-1270]-8His S764P-S766M (other)
chain: B1 chain with Y3M
B3: Hu-vWF[764-1270]-8His S764P-S766W (other)
chain: B1 chain with Y3W
B4: Hu-vWF[764-1270]-8His S764P-S766L (other)
chain: B1 chain with Y3L
B5: Hu-vWF[764-1270]-8His S764I/S766Y (other)
chain: B1 chain with P1I
B6: Hu-vWF[764-1270]-8His S764L/S766Y (other)
chain: B1 chain with P1L
B7: Hu-vWF[764-1270]-8His S764V/S766Y (other)
chain: B1 chain with P1V
B8: Hu-vWF[764-1270]-8His S764Y/S766Y (other)
chain: B1 chain with P1Y
B9: Hu-vWF[764-1270]-8His S764W/S766Y (other)
chain: B1 chain with P1W
B10: Hu-vWF[764-1270]-8His S764M/S766Y (other)
chain: B1 chain with P1M
B11: Hu-vWF[764-1270]-8His S764T/S766Y (other)
chain: B1 chain with P1T
B12: Hu-vWF[764-1270]-8His S764K/S766Y (other)
chain: B1 chain with P1K
B13: Hu-vWF[764-1270]-8His S764N/S766Y (other)
chain: B1 chain with P1N
B14: Hu-vWF[764-1270]-8His S764R/S766Y (other)
chain: B1 chain with P1R
B15: Hu-vWF[764-1270]-8His S764Q/S766Y (other)
chain: B1 chain with P1Q

molecular target: T1, recombinant Factor VIII (CSL627, …); assay: SPR, anti-His capture
How it was run: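 First, mutants in culture medium are loaded to 40-150 RU on anti-His-coated chip; next, 1 nM FVIII is passed over for 5 min and washout followed for 5 min; finally, 1:1 fitting of double-referenced data gives rate constants.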

Kd | koff | kon | Molecule
7.16 pM | 7.71e-05 s⁻¹ | 1.08e+07 M⁻¹ s⁻¹ | B1

molecular target: T2, recombinant Factor VIII (CSL627, …); assay: SPR, anti-His capture, FVIII injected, pH 5.5

Kd | koff | kon | Molecule
292 pM | 9.16e-05 s⁻¹ | 314000 M⁻¹ s⁻¹ | B2
172 pM | 4.75e-05 s⁻¹ | 277000 M⁻¹ s⁻¹ | B3
234 pM | 0.000104 s⁻¹ | 445000 M⁻¹ s⁻¹ | B4

molecular target: T1, recombinant Factor VIII (CSL627, …); assay: SPR, anti-His capture; remark: another data set of the same source
Procedure: Binding kinetics were investigated by surface plasmon resonance using a Biacore 4000 biosensor at 37° C. Each mutant was captured from cell culture medium to a density of 40-150 RU on a CM-5 sensor chip pre-immobilised with anti-His antibody (14,000 RU). In an initial screening study, FVIII was injected over the captured mutants for 5 minutes at 1 nM and dissociation monitored for 5 minutes.
All sensorgrams were double referenced by subtraction of signals from a reference spot (containing only immobilised anti His antibody) and from a blank injection. Binding kinetics were determined by fitting the double referenced sensorgrams to a 1:1 kinetic model.

Kd | koff | kon | Molecule
9.23 pM | 9.52e-05 s⁻¹ | 1.03e+07 M⁻¹ s⁻¹ | B5
2.27 pM | 7.99e-05 s⁻¹ | 3.52e+07 M⁻¹ s⁻¹ | B6
2.15 pM | 6.41e-05 s⁻¹ | 2.99e+07 M⁻¹ s⁻¹ | B7
7.16 pM | 7.71e-05 s⁻¹ | 1.08e+07 M⁻¹ s⁻¹ | B1
2.47 pM | 7.88e-05 s⁻¹ | 3.19e+07 M⁻¹ s⁻¹ | B8
10.9 pM | 9.67e-05 s⁻¹ | 8.88e+06 M⁻¹ s⁻¹ | B9
14.4 pM | 0.000103 s⁻¹ | 7.15e+06 M⁻¹ s⁻¹ | B10
5.27 pM | 0.000136 s⁻¹ | 2.58e+07 M⁻¹ s⁻¹ | B11
43.5 pM | 0.000822 s⁻¹ | 1.89e+07 M⁻¹ s⁻¹ | B12
6.92 pM | 8.88e-05 s⁻¹ | 1.28e+07 M⁻¹ s⁻¹ | B13
2.85 pM | 9.2e-05 s⁻¹ | 3.23e+07 M⁻¹ s⁻¹ | B14
9.18 pM | 0.000109 s⁻¹ | 1.19e+07 M⁻¹ s⁻¹ | B15

molecular target: recombinant Factor VIII (CSL627, rVIII-SingleChain) (Homo sapiens (Human)) (UniProt P00451); assay: SPR, anti-His capture, FVIII injected, 37 C

Kd | koff | kon | Molecule
255 pM and 199 pM | 0.00159 s⁻¹ and 0.0025 s⁻¹ | 6.23e+06 M⁻¹ s⁻¹ and 1.25e+07 M⁻¹ s⁻¹ | Hu-vWF[764-1270]-8His dupS764/S764P/S766I (from UniProt P04275 767-1270)
